Three molecules from patent JP2004097211A (dated 2004) can be followed below.

One test deals with T1, CDR1抗原ペプチド.
T1 peptide: RSSKSLLYSNGNTYLY
Description: cell-based or functional assay.

The target of test [1] is ヘリコバクターピロリ菌のウレーアゼ (ヘリコバクターピロリ菌 (Helicobacter pylori)) (UniProt P14916). In words: cell-based or functional assay.

B1: i41SL1−2抗体の軽鎖 (other)
VL: DIVMTQTQLTLTINIGQPASISCKSSQSLLDSDGKTYLNWLFQRPGQSPKRLIYLVSKLDSGVPDRFTGSGSGTDFTLKISRVEAEDLGVYYCWQGTHFPLTFGAGTKLELRRA
modifications: cysteines reduced with b-mercaptoethanol and alkylated with iodoacetamide (positions not stated)
Regarding B1, the “回転数(kcat)” value in the test with CDR1抗原ペプチド was ~0.005 fold of trypsin (trypsin measured on another synthetic peptide).

B2: i41SL1−2抗体の重鎖 (other)
VH: QVQLQHSGAELVRPGSSVKVSCKALGYTSTDYEIHWVKQTPVRGLEWIGAIHPGSDVIVYNQKFKGTATLTADKSSSTAYMELRSLTSEDSAVYYCTREGGSVDYVWGQGTLVTVSA
modifications: cysteines reduced with b-mercaptoethanol and alkylated with iodoacetamide (positions not stated)
In the case of B2, in the test with CDR1抗原ペプチド, the “回転数(kcat)” value was ~0.005 fold of trypsin (trypsin measured on another synthetic peptide) and the “触媒効率(kcat/Km)” value is ~0.1 fold of trypsin (trypsin measured on another synthetic peptide).

B3: HpU−20抗体のL鎖 (protein)
VL: DVLMTQTPLSLPISLGDQASISCRSSQSIVQSNGNTYLEWYVQKPGQSPKLLIYKVSNRFSGVPDRFSGSGSGTDFTFKISRVEAEDLGVYYCIQGSHVPLTFGAGTKLELKRA
modifications: cysteines reduced with b-mercaptoethanol and alkylated with iodoacetamide (positions not stated)
In test [1], B3 registered a タンパク質分解実験 (SDS-PAGE, 1 h): decrease of the β subunit band against the control of 26.7%.
